How the values were obtained:
Assay type in all cases: binding
[1] = biological target: T1, Nectin-1 extracellular domain (Homo sapiens, UniProt Q15223); test: ELISA on coated Nectin-1 extracellular domain Fc fusion protein (Nec1-VCC)
T1 construct: Nectin-1 extracellular domain Fc fusion recombinant protein (Nec1-VCC)
T1 sequence (Q15223 31-355 limits assumed): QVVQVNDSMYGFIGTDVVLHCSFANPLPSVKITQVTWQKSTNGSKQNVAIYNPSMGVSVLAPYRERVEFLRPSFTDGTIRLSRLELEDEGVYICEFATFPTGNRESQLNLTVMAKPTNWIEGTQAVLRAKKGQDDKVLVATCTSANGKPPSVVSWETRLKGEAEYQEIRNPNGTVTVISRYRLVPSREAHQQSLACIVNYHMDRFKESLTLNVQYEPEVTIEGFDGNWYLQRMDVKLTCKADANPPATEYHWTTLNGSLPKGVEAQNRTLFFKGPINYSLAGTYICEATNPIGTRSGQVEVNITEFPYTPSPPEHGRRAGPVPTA
Description: (§1) Detection by ELISA. • Ninety-six-wells plates were coated, as indicated, with 5 μg/mL Nectin-1 extracellular domain Fc fusion recombinant protein (Nec1-VCC), or Nectin-4 IgV-like domain Fc fusion recombinant protein (Nec4-V), or Nectin-4 extracellular domain Fc fusion recombinant protein (Nec4-VCC) overnight at 4° ° C.
(§2) A sandwich enzyme-linked immunosorbent assay was used to control specificity of Ch-15A7.5 antibody and to perform competition assays between different mAbs. Ninety-six-wells plates were coated with 10 nM of Nectin-4-VCC-Fc, Nectin-1-VCC-Fc (entire extracellular part) or Nectin-4-V-Fc (comprising only the IgV domain) overnight at +4° C. After washes and saturation with PBS 1% BSA, cells were incubated for 2 hours at 25° C. with 10 nM of peroxidase-conjugated Ch-15A7.5 mAb. In the case of competition, binding of 0.5 nM of peroxidase conjugated Ch-15A7.5 mAb was measured in the presence of variable concentration (0.018 nM to 40 nM) of “cold” mAb. One hundred μL of peroxidase substrate was added (One Step ABST, Pierce), and OD was red at 405 nm.

human Nectin-4 [2] = test: Flow cytometry of MDA-MB231 transfected with Flag-tagged Nectin-4; details: MDA-MB231 transfected with Nectin-4, 0.3 ng/ml-5 μg/mL
Description: Detection by flow cytometry. • Flow cytometry analysis of MDA-MB231 transfected with the N-terminal Flag-tagged epitope of Nectin-4 using a dose range (0.3 ng/ml-5 μg/mL) of Ch-15A7.5 or Ch-5A12.2 antibodies Parental MDA-MB231 cells are included as controls. Cells were then stained with phycoerythrin conjugate goat anti human Fc antibody. The normalized mean fluorescence intensity is shown. Inlay: staining of parental MDA-MB231 cells with anti Nectin-1, -2 and -3 mAbs ([…]). Mean fluorescence intensity is represented.
Human breast carcinoma cell line MDA-MB231 (ATCC, Manassas, VA) was cultured in DMEM supplemented with 10% fetal bovine serum, 50 IU/mL penicillin, 50 μg/mL streptomycin and 2 mM glutamine. The cells were transfected with expression vector p3XFLR4.C1 containing a PVRL4 cDNA. Human triple negative breast cancer cell line SUM190PT (BioIVT, Westbury, NY) was cultures in Ham's F12 medium with 5% fetal bovine serum, 1% non-essential amino acids, 1% Hepes, 1% insulin, 1 μg/mL hydrocortisone, 6.8 ng/ml Triiodo L-tyrosine, 100 IU/mL penicillin, 100 μg/mL streptomycin and 2 mM glutamine. Chinese hamster ovary CHO cell line was cultured in DMEM supplemented with 10% fetal bovine serum, 100 IU/mL penicillin, 100 μg/mL streptomycin and 2 mM glutamine. […]

[3] = biological target: T2, Nectin-4 expressed by normal differentiated human keratinocytes (NHEK) (Homo sapiens, UniProt Q96NY8); test: Flow cytometry on normal differentiated human keratinocytes (NHEK); details: dose range 8 PM-33 nM
T2 construct: Cells or cell lines (10,000-50,000) expressing Nectin-4 (naturally or transfected); endogenous in cells; host or cells: NHEK, differentiated with 0.1 mM CaCl2
T2 sequence (Q96NY8 32-510): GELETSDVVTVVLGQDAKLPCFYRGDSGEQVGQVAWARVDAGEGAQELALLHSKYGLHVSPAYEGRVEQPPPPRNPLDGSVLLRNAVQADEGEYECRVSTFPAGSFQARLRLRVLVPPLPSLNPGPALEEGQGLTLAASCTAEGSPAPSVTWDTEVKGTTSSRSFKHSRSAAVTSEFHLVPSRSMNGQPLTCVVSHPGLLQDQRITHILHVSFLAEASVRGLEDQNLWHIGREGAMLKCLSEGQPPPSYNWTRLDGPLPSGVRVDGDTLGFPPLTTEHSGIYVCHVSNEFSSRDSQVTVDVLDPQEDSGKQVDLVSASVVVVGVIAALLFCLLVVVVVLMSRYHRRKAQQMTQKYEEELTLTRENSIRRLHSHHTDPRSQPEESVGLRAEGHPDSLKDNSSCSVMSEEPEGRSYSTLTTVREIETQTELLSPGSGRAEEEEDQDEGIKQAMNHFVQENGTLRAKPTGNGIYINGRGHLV
Description: FIG. 15: Differential binding of Ch-15A7.5 and its humanized variants to Nectin-4 expressed by tumor cell line and normal differentiated human keratinocytes. Detection by flow cytometry.
Flow cytometry analysis of TNBC cell line (SUM190, upper panels) and normal differentiated (0.1 mM CaCl2) human keratinocytes (NHEK, lower panels) using a dose range (8 PM-33 nM) of Ch-5A12.2, Ch-15A7.5 and its humanized variants 15A7.5-H1L2, -H1L3, -H2L2, -H2L3, -H3LO, -H3L2, -H3L3. Cells were then stained with phycoerythrin conjugate goat anti human Fc antibody. Normalized mean fluorescence intensities are shown. Non-linear curve fitting (4 parameters) was done with GraphPad Prism 9 software.
Cells or cell lines (10,000-50,000) expressing Nectin-4 (naturally or transfected) were incubated with dose range of the indicated antibodies. After washing, cells were then stained with phycoerythrin-conjugated goat anti human antibody (5 μg/mL) Jackson Immuno Research). After fixation, cells were stained with a viability dye (e780, Invitrogen) before flow cytometry acquisition.

human Nectin-4 [4] = test: ELISA on coated Nectin-4 Fc fusion proteins (Nec4-VCC, Nec4-V); details: ELISA
Description: as §1
FIG. 3: Characterization of Ch-15A7.5 epitope. Competition assay was performed by ELISA. • Ninety-six-wells plates were coated with 5 μg/mL of Nectin-4 extracellular domain Fc fusion recombinant protein (Nec4-VCC) overnight at 4° C. Binding of peroxidase-conjugated Ch-15A7.5 mAb (5 μg/mL) was measured in presence of increasing concentrations (2.75 ng/ml-6 μg/mL) of Rituximab, Ch-15A7 mAb, Enfortumab (HA22), Ch-N41 mAb and Ch-14A5 mAb.
as §2

recognition of Nectin-1 extracellular domain [1]: not the Nectin-1 extracellular domain
apparent EC50 towards keratinocytes in comparison to that of Ch-5A12.2 [3]: much lower apparent EC50
B1: Ch-15A7.5: chimeric antibody of 15A7.5 with Fc-silent human Fc (antibody, V domains shown)
VH: EVKLVESGGGLVQPGGSRKLSCAASGFTFSNYGMAWVRQAPGKGPEWVAFISNLAYGINYADTVTGRFTISRENAKNTLYLEMRSLRSEDTAMYYCARGARATGWFAYWGQGTLVTVSA
VL: DIVMTQSQKFMSTSIGDRVSVTCKASQNVDTHVAWYQEKPGQSPKALIYSASYRYSGVPDRFTGSGSGTDFTLTISNVQSEDLADYFCQQYNSYPLTFGGGTKLEIK
recognition of human Nectin-4 (human Nectin-4 [2]): recognize human Nectin-4
recognition of Nectin-4 IgV-like domain (human Nectin-4 [4]; Nec4-V coated): recognizes IgV-like domain of human Nectin-4
recognition of Nectin-4 extracellular domain (human Nectin-4 [4]; Nec4-VCC coated): recognizes the Nectin-4 extracellular domain
